The results in this text go back to article PMC6146688.

Assay [1] addresses LacI-mCherry-E1A(121–223) (human adenovirus 2) (UniProt P03254). The experiment in a line: recruitment to a lacO array (colocalisation of a YFP fusion with a LacI-tethered fusion, confocal microscopy); CHO-A03.1 cells with ~10,000 integrated lacO sites, cotransfected with 2 ug LacI-CFP-E1A or LacI-mCherry-E1A vector and 2 ug YFP-MED6, YFP-MED23 or YFP-p300 vector; fixed after 48 h; score = % of scored cells with colocalisation.

Assay [2] deals with LacI-mCherry-E1A(133–205) (human adenovirus 2) (UniProt P03254). The description is as above.
Assay [3] has as its target LacI-mCherry-E1A(140–205) (human adenovirus 2) (UniProt P03254). Described as above.
Assay [4] addresses LacI-mCherry-E1A(133–189) (human adenovirus 2) (UniProt P03254). Described as above.
Assay [5] addresses LacI-mCherry-E1A(133–178) (human adenovirus 2) (UniProt P03254). Described as above.
Assay [6] addresses LacI-mCherry-E1A(140–189) (human adenovirus 2) (UniProt P03254).

Consider YFP-p300, Q09472 1-2414, for which the colocalization score (% of cells) in assay [1] came out at 86%; in assay [2], 73%; in assay [3], 64%; in assay [4] it was 86%; in assay [5], 64%. The substance further registered a luciferase reporter with eight lacO sites upstream of the E1B promoter, transient transfection of CHO-K1 cells; activity relative to LacI-mCherry-E1A(121–223) in assay [6] of 10%.
